Results on one molecule are retold here after article doi:10.1101/2022.02.13.480273.

In the assay the target is GST-RABL2^S37N (Chlamydomonas reinhardtii). The assay can be described thus: SEC.

B1: ARL3^T30N (bacterially expressed) (natural protein)
chain: MGLLSLIRGLKKKEGEARILVLGLDNAGKNTILKALSEEDITTITPTQGFNIKSLSRDGFNLKIWDIGGQKSIRPYWRNYFDQTDALIYVIDSADSKRLSESEFELTELLQEEKMTGVPLLVFANKQDLVGALAADEIASTLDLTSIRDRPWQIQACSAKQGTGLKEGMEWMMKQVK
For orientation: stoichiometry N means a count of units in the complex or per binding partner. As for B1, the stoichiometry N was 1.
